The stoichiometry N is the number of molecules, sites or subunits per partner or assembly.

This data set deals with the molecule itself. The data set can be described thus: SEC; Superdex 200 Increase 5/150 GL, 50 mM HEPES pH 7, 300 mM KCl, room temperature, 0.3 mL/min; loaded at 23 µM, eluting at around 7.5 µM; apparent mass against a calibration curve; self-association (dimer). On the technique in general: In gel filtration, larger molecules generally elute earlier.

B1: phosphoserine aminotransferase (PSAT), wild type, human, PSAT beta (enzyme)
chain: MDAPRQVVNFGPGPAKLPHSVLLEIQKELLDYKGVGISVLEMSHRSSDFAKIINNTENLVRELLAVPDNYKVIFLQGGGCGQFSAVPLNLIGLKAGRCADYVVTGAWSAKAAEEAKKFGTINIVHPKLGSYTKIPDPSTWNLNPDASYVYYCANETVHGVEFDFIPDVKGAVLVCDMSSNFLSKPVDVSKFGVIFAGAQKNVGSAGVTVVIVRDDLLGFALRECPSVLEYKVQAGNSSLYNTPPCFSIYVMGLVLEWIKNNGGAAAMEKLSSIKSQTIYEIIDNSQGFYVCPVEPQNRSKMNIPFRIGNAKGDDALEKRFLDKALELNMLSLKGHRSVGGIRASLYNAVTIEDVQKLAAFMKKFLEMHQL
notes: human phosphoserine aminotransferase, splice form PSAT beta (the long form; PSAT alpha lacks 46 amino acids between V290 and S337); PLP-dependent homodimer; also called wt PSAT; WT; source: E. coli BL21(DE3) tuner, purified (IMAC, Talon superflow); not shown: His tag (from the IMAC purification on Talon)
Consider B1, for which the “stoichiometry N” value came out at 2.

For the origin of these results see PMC10452355, “Phosphoserine Aminotransferase Pathogenetic Variants in Serine Deficiency Disorders: A Functional Characterization” (Biomolecules, 2023).
